Patent US20250043302A1, “MUTATED HYDROXYPHENYLPYRUVATE DIOXYGENASE POLYPEPTIDE, AND CODING GENE AND USE THEREOF” (BEIJING DABEINONG BIOTECHNOLOGY CO., LTD., priority 2021, published 2025)
Changes are numbered by the printed parent chain. Names and notes keep the numbering of the source.

B1: OsHPPD-02: nucleotide sequence encoding wild-type Oryza sativa HPPD; vector DBN11754 (nucleic acid)
DNA: ATGCCACCCACGCCAACACCAACGGCCACCACTGGTGCCGTCTCGGCCGCGGCAGCGGCCGGTGAGAATGCTGGTTTCAGGCTAGTCGGCCACCGCCGCTTCGTGAGGGCAAATCCAAGATCTGATCGGTTCCAAGCACTTGCTTTCCACCATGTTGAGCTGTGGTGCGCTGACGCCGCTTCAGCTGCCGGGAGGTTTGCTTTTGCTTTAGGGGCGCCGCTCGCCGCAAGGAGTGATCTTTCCACCGGAAATTCTGCTCATGCTTCTCTTCTACTTAGATCAGCAAGTGTTGCATTTCTGTTCACTGCACCTTATGGCGGAGACCATGGTGTCGGGGCCGATGCTGCAACAACAGCTAGCATACCATCATTTTCTCCCGGCGCCGCAAGAAGATTTGCAGCCGATCATGGCCTGGCAGTTCATGCTGTGGCATTGAGGGTCGCCGACGCGGCTGATGCGTTCCGCGCCAGCGTGGCTGCTGGAGCTAGGCCGGCGTTCCAGCCTGCTGACCTTGGGGGTGGATTTGGATTGGCGGAGGTTGAATTATATGGTGATGTTGTGCTCCGTTTTGTTTCCCATCCAGATGGTGCTGATGCTCCATTTCTACCTGGATTTGAAGGGGTGTCAAACCCCGGCGCGGTGGATTATGGACTGCGTCGATTTGATCACGTGGTAGGTAATGTTCCTGAGTTGGCTCCCGTGGCGGCCTACATTTCAGGCTTTACTGGCTTCCATGAATTTGCCGAGTTCACCGCGGAAGATGTGGGAACTGCTGAAAGTGGATTGAACTCTGTTGTCCTGGCGAACAATGCAGAGACTGTATTGCTCCCCTTGAATGAGCCTGTGCACGGCACCAAACGGCGATCTCAAATTCAGACATACCTCGACCACCACGGGGGCCCTGGTGTTCAGCATATTGCTCTAGCCAGCGACGACGTACTGGGAACACTGAGGGAGATGAGAGCCCGTTCCGCCATGGGTGGCTTTGAGTTTCTGGCCCCTCCGCCGCCAAACTACTACGACGGCGTCAGACGGCGGGCGGGTGACGTCTTGAGTGAGGAGCAGATCAATGAATGTCAAGAACTTGGGGTTCTTGTTGATAGAGATGATCAAGGAGTGCTCCTCCAAATATTCACAAAACCTGTTGGCGACCGCCCGACCTTCTTCCTTGAAATGATCCAAAGGATCGGCTGCATGGAGAAGGATGAATCGGGCCAGGAGTACCAGAAGGGTGGGTGTGGTGGCTTTGGGAAGGGCAACTTCAGCGAGCTGTTCAAGTCAATTGAAGAATATGAAAAATCATTGGAGGCAAAGCAAGCTCCGACGGTGCAGGGAAGCTGA
modifications: OsHPPD-02 Nucleotide Sequence
notes: vector DBN11754
B2: OsHPPDm-F372A-F383W-02: nucleotide sequence encoding Oryza sativa HPPD with F372A+F383W; vector DBN11757 (nucleic acid)
DNA: B1 DNA with T1132G, T1133C, T1166G, C1167G
modifications: OsHPPDm-F372A-F383W-02 Nucleotide Sequence
notes: vector DBN11757

Tests used:
Format in all cases: in vivo
[1] = tested on: Arabidopsis thaliana T1 plants; experiment: Topramezone tolerance of transgenic Arabidopsis thaliana T1 plants (spray, bleached leaf area grade, damage score); conditions: 7 DAT, Table 4; for Classification and statistics of the grade of pesticide damage: Grade 0 / Classification and statistics of the grade of pesticide damage: Grade 1 / Classification and statistics of the grade of pesticide damage: Grade 2 / Classification and statistics of the grade of pesticide damage: Grade 3: number of plants; for Scores: pesticide damage score 0-100
In short: (§1)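 Damage graded 0–3 from the proportion of bleached leaf area 7 days after spraying. Plants were glufosinate-selected T1 lines, 18 days after sowing, plus vector and wild-type controls. Rates: mesotrione 52.5–420, isoxaflutole 35–280, topramezone 25–200 g ai/ha, with water (0×).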

[2] = tested on: Arabidopsis thaliana T1 plants; experiment: Isoxaflutole tolerance of transgenic Arabidopsis thaliana T1 plants (spray, bleached leaf area grade, damage score); parameters: Scores (pesticide damage): scale not given here; conditions: spray, Arabidopsis thaliana T1 plants; for Classification and statistics of the grade of pesticide damage: Grade 0 (number of plants) / Classification and statistics of the grade of pesticide damage: Grade 1 (number of plants) / Classification and statistics of the grade of pesticide damage: Grade 2 (number of plants) / Classification and statistics of the grade of pesticide damage: Grade 3 (number of plants): 16 plants
In short: as §1

[3] = tested on: Arabidopsis thaliana T1 plants; experiment: Mesotrione tolerance of transgenic Arabidopsis thaliana T1 plants (spray, bleached leaf area grade, damage score); parameters: Scores: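 damage score 0-100 computed as Σ(N×S)/(T×M)×100 over grades 0-3 with higher meaning more damage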; conditions: Arabidopsis thaliana T1 plants; for Grade 0 (classification and statistics of the grade of pesticide damage; number of plants) / Grade 1 (classification and statistics of the grade of pesticide damage; number of plants) / Grade 2 (classification and statistics of the grade of pesticide damage; number of plants) / Grade 3 (classification and statistics of the grade of pesticide damage; number of plants): 16 plants
In short: as §1

[4] = isoxaflutole 35 g ai/ha (0.5x field concentration)
[5] = isoxaflutole 70 g ai/ha (1x field concentration)

| Molecule | Classification and statistics of the grade of pesticide damage: Grade 0 ([1]; topramezone 25 g ai/ha (1×)) | Classification and statistics of the grade of pesticide damage: Grade 1 ([1]; topramezone 25 g ai/ha (1×)) | Classification and statistics of the grade of pesticide damage: Grade 2 ([1]; topramezone 25 g ai/ha (1×)) | Classification and statistics of the grade of pesticide damage: Grade 3 ([1]; topramezone 25 g ai/ha (1×)) | Classification and statistics of the grade of pesticide damage: Grade 0 ([1]; topramezone 100 g ai/ha (4×)) | Classification and statistics of the grade of pesticide damage: Grade 1 ([1]; topramezone 100 g ai/ha (4×)) | Classification and statistics of the grade of pesticide damage: Grade 2 ([1]; topramezone 100 g ai/ha (4×)) | Classification and statistics of the grade of pesticide damage: Grade 3 ([1]; topramezone 100 g ai/ha (4×)) | Scores ([1]; topramezone 25 g ai/ha (1×)) | Scores ([1]; topramezone 100 g ai/ha (4×)) | Resistance evaluation ([1]; topramezone 25 g ai/ha (1×)) | Resistance evaluation ([1]; topramezone 100 g ai/ha (4×)) | Resistance evaluation [2, 4] | Scores (pesticide damage) [2, 4] | Classification and statistics of the grade of pesticide damage: Grade 0 (number of plants) [2, 4] | Classification and statistics of the grade of pesticide damage: Grade 1 (number of plants) [2, 4] | Classification and statistics of the grade of pesticide damage: Grade 2 (number of plants) [2, 4] | Classification and statistics of the grade of pesticide damage: Grade 3 (number of plants) [2, 4] | Resistance evaluation [2, 5] | Scores (pesticide damage) [2, 5] | other results |
| --- | --- | --- | --- | --- | --- | --- | --- | --- | --- | --- | --- | --- | --- | --- | --- | --- | --- | --- | --- | --- | --- |
| B1 | 0 | 0 | 0 | 16 | 0 | 0 | 0 | 16 | 100 | 100 | non-resistant (non-resistant plants (scores 68-100)) | non-resistant (non-resistant plants (scores 68-100)) | Non-resistant | 100 | 0 | 0 | 0 | 16 | Non-resistant | 100 | Classification and statistics of the grade of pesticide damage: Grade 0 (number of plants) [2, 5]: 0; Classification and statistics of the grade of pesticide damage: Grade 1 (number of plants) [2, 5]: 0; Classification and statistics of the grade of pesticide damage: Grade 2 (number of plants) [2, 5]: 0; Classification and statistics of the grade of pesticide damage: Grade 3 (number of plants) [2, 5]: 16; Resistance evaluation ([3]; mesotrione 52.5 g ai/ha): Non-resistant; Scores ([3]; mesotrione 52.5 g ai/ha): 100; Grade 0 (classification and statistics of the grade of pesticide damage; number of plants) ([3]; mesotrione 52.5 g ai/ha): 0; Grade 1 (classification and statistics of the grade of pesticide damage; number of plants) ([3]; mesotrione 52.5 g ai/ha): 0; Grade 2 (classification and statistics of the grade of pesticide damage; number of plants) ([3]; mesotrione 52.5 g ai/ha): 0; Grade 3 (classification and statistics of the grade of pesticide damage; number of plants) ([3]; mesotrione 52.5 g ai/ha): 16; Resistance evaluation ([3]; mesotrione 105 g ai/ha): Non-resistant; Scores ([3]; mesotrione 105 g ai/ha): 100; Grade 0 (classification and statistics of the grade of pesticide damage; number of plants) ([3]; mesotrione 105 g ai/ha): 0; Grade 1 (classification and statistics of the grade of pesticide damage; number of plants) ([3]; mesotrione 105 g ai/ha): 0; Grade 2 (classification and statistics of the grade of pesticide damage; number of plants) ([3]; mesotrione 105 g ai/ha): 0; Grade 3 (classification and statistics of the grade of pesticide damage; number of plants) ([3]; mesotrione 105 g ai/ha): 16 |
| B2 | 10 | 6 | 0 | 0 | 2 | 13 | 1 | 0 | 13 | 31 | highly | moderately | Highly | 10 | 11 | 5 | 0 | 0 | Highly | 15 | Classification and statistics of the grade of pesticide damage: Grade 0 (number of plants) [2, 5]: 9; Classification and statistics of the grade of pesticide damage: Grade 1 (number of plants) [2, 5]: 7; Classification and statistics of the grade of pesticide damage: Grade 2 (number of plants) [2, 5]: 0; Classification and statistics of the grade of pesticide damage: Grade 3 (number of plants) [2, 5]: 0; Resistance evaluation ([3]; mesotrione 52.5 g ai/ha): Highly resistant; Scores ([3]; mesotrione 52.5 g ai/ha): 15; Grade 0 (classification and statistics of the grade of pesticide damage; number of plants) ([3]; mesotrione 52.5 g ai/ha): 9; Grade 1 (classification and statistics of the grade of pesticide damage; number of plants) ([3]; mesotrione 52.5 g ai/ha): 7; Grade 2 (classification and statistics of the grade of pesticide damage; number of plants) ([3]; mesotrione 52.5 g ai/ha): 0; Grade 3 (classification and statistics of the grade of pesticide damage; number of plants) ([3]; mesotrione 52.5 g ai/ha): 0; Resistance evaluation ([3]; mesotrione 105 g ai/ha): Poorly resistant; Scores ([3]; mesotrione 105 g ai/ha): 38; Grade 0 (classification and statistics of the grade of pesticide damage; number of plants) ([3]; mesotrione 105 g ai/ha): 0; Grade 1 (classification and statistics of the grade of pesticide damage; number of plants) ([3]; mesotrione 105 g ai/ha): 14; Grade 2 (classification and statistics of the grade of pesticide damage; number of plants) ([3]; mesotrione 105 g ai/ha): 2; Grade 3 (classification and statistics of the grade of pesticide damage; number of plants) ([3]; mesotrione 105 g ai/ha): 0 |
